According to patent publication US7259254B2, “Mutants and assay system to identify USP/RXR ligands” (University of Kentucky Research Foundation, priority 2002, dated 2007):
Changes are numbered by the printed parent chain. Numbers in names are those of the source. Entries after “also recorded” stand apart in the source; their conditions may differ.

T1: His-tagged wild-type dUSP (Drosophila melanogaster, UniProt P20153)
T1 construct: His tag; made in house; host or cells: bacteria (pET32EK vector)
T1 sequence (P20153 1-508): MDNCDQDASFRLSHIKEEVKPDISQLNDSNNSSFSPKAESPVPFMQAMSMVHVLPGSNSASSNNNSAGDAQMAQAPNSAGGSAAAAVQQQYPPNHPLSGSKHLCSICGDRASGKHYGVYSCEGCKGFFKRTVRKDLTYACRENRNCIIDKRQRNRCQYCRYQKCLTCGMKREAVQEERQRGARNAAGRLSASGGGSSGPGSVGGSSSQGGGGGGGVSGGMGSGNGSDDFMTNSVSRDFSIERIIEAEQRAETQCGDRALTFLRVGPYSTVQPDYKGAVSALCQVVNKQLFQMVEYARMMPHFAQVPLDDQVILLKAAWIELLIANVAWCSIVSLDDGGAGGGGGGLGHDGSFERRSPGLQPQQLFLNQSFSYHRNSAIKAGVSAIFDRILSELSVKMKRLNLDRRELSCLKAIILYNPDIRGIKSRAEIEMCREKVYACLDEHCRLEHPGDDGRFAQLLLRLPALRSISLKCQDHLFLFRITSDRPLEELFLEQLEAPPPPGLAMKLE

B1: W318F: USP mutant, phenylalanine at position 318 (protein)
chain: T1 sequence (P20153 1-508) with W318F
B2: W318F/W328F: USP mutant, phenylalanine at positions 318 and 328 (protein)
chain: T1 sequence (P20153 1-508) with W318F, W328F
B3: P498W/P499W/W318F/W328F: USP mutant, tryptophan at 498 and 499, phenylalanine at 318 and 328 (protein)
chain: T1 sequence (P20153 1-508) with W318F, W328F, P498W, P499W
B4: P498W/P499W/W318F: USP mutant, tryptophan at 498 and 499, phenylalanine at 318 (protein)
chain: T1 sequence (P20153 1-508) with W318F, P498W, P499W
B5: C472A/H475L: dUSP ligand-binding pocket double mutant, alanine at 472 and leucine at 475 (protein)
chain: T1 sequence (P20153 1-508) with C472A, H475L
B6: Q288A: dUSP mutant, Gln288 mutated to alanine (protein)
chain: T1 sequence (P20153 1-508) with Q288A
B7: W328F: USP mutant, phenylalanine at position 328 (protein)
chain: T1 sequence (P20153 1-508) with W328F
B8: P498W/P499W: USP mutant, two prolines at end of α-helix 12 replaced with tryptophan (protein)
chain: T1 sequence (P20153 1-508) with P498W, P499W
B9: wild-type dUSP: wild type Drosophila melanogaster Ultraspiracle receptor, SEQ ID NO: 2 (protein)
chain: T1 sequence (P20153 1-508)
modifications: Drosophila melanogaster

biological target: T1, His-tagged wild-type dUSP; experiment: Intrinsic tryptophan fluorescence ligand-binding assay, wild-type dUSP; conditions: excitation 290 nm, emission 340 nm; 0.5 μm receptor
Method: The homodimer-enriched fraction of bacterial recombinant His-dUSP fusion protein was purified by nickel resin selection, elution with imidazole, centrifugal concentration, and then gel permeation chromatography (Superdex 200) with procedures and chemical sources exactly as already described previously Jones et al. (2000) Insect Biochem. Mol. Biol. 30, 671-679. The homodimer-enriched fraction of the purified His-USP fusion protein was raised to 2 ml of NaCl and a final concentration of 0.5 μm. For a fluorescence-based ligand-binding assay based on intrinsic tryptophan fluorescence Jones et al. (2001) Insect Biochem. Mol. Biol. 32, 33-49; Jones et al (1998) Biochem. J. 335, 79-84; 79-84; Jones et al. (2000) Biochem. J. 346, 233-240; Jones et al (1997) Proc. Natl. Acad. Sci. USA 94, 13499-13503, ligand or ethanol carrier was added and the receptor preparation excited at 290 nm and monitored for emission at 340 nm, until the signal from the receptor had stabilized. Fluorescence was measured three times for each sample, with standard deviation typically smaller than the graphical plotted datum point. Each fluorescence experiment was replicated on three or more independent occasions, each time with similar results.
The ability of the wild-type dUSP and dominant negative, ligand-binding pocket mutant dUSP to bind methyl epoxyfarnesoate was tested.

| Molecule | effect on receptor intrinsic fluorescence (ligand binding), wild-type dUSP |
| --- | --- |
| CC(C)=CCCC(C)=CCCC(C)=CCO [farnesol] | do not have that effect |

test system: 4DR12Core reporter promoter in Sf9 cells (endogenous USP); experiment: Dominant negative activity of transfected dUSP mutants on methyl epoxyfarnesoate activation of 4DR12Core reporter in Sf9 cells; type: cell-based, Spodoptera frugiperda; conditions: Table 1, mutants envisioned
Source text: In another embodiment, mutant nuclear hormone receptors disclosed herein comprise amino acid substitutions that render the mutant to act as a “dominant negative.” Dominant negative proteins exploit protein-protein interactions, i.e., the interactions between a mutated protein produced by a transgene and the related native protein inside the cell. The mutant protein forms a dimer with an integral part of a wild type endogenous protein molecule. The mutant protein interacts with a whole range of native compatible gene products. Preferably, the mutant homodimerizes or heterodimerizes with an endogenous wild type partner to form a complex following ligand or independent of ligand binding. Preferably, as opposed to a complex of wild type monomers, a complex of a mutant and its endogenous wild type partner will be incapable of initiating transcription at a hormone receptor response reporter gene. Assays for determining dominant negative activity may be found in Examples 6 and 7 as well as FIG. 4.
Spodoptera frugiperda cell line, Sf9, was maintained and transfected as described previously Jones et al (1998) Biochem. J. 335, 79-84; Jones et al. (2000) Biochem. J. 346, 233-240. As an internal control to compare activities of different constructs, 0.3 μg of a constituitive heat-shock promoter-driven β-galactosidase gene was cotransfected. To study the role of USP in activation of the nuclear hormone receptor response element fused to core promoter in methyl epoxyfarnesoate-treated cells, cloned D. melangaster USP (dUSP) cDNA and its derivatives containing mutations in the ligand-binding pocket were cotransfected with the reporter and internal control plasmids. […] After 48 h of the treatment, the cells were harvested and the activity of the luciferase reporter was measured using a luciferase assay kit (Promega) in a multipurpose scintillation counter (Beckman, Fullerton, Calif.). β-Galactosidase activity was measured using chlorophenol red-[…] monosodium (CPRG; Roche Molecular Biochemicals) as a colorimetric substrate.
His-tagged dUSP dominant negative double mutant Cys472Ala/His475Leu (C472A/H475L) was over expressed in methyl epoxyfarnesoate-treated Sf9 cells that were cotransfected with the 4DR12Core reporter plasmid.
Under the model that overexpression of the C472A/H475L double mutant competed with endogenous USP in the pathways for transduction of the exogenous methyl epoxyfarnesoate signal, the level of effect of the double mutant ought to be dependent on its dose. […] This background of the blocked activation pathway was used to test whether activation by methyl epoxyfarnesoate treatment was actually dependent on the presence of wild-type USP. […] Again, over the range of the monotonic restoration of methyl epoxyfarnesoate-activated transcription, there was no effect of the transfected wild-type dUSP on the basal level of transcription in EtOH-treated controls.

| Molecule | Dominant Negative Activity |
| --- | --- |
| B1 | Weak Activity |
| B2 | Weak Activity |
| B3 | Weak Activity |
| B4 | Weak Activity |

same assay, conditions: receptor overexpressed in Sf9 cells, 75 μm methyl epoxyfarnesoate

| Molecule | dominant negative effect on methyl epoxyfarnesoate-induced activation of 4DR12Core promoter |
| --- | --- |
| B5 | distinct suppression; also recorded: progressive suppression |
| B6 | acted as a dominant negative suppressor |
| B1 | weak dominant negative |
| B7 | not a dominant negative |
| B8 | not a dominant negative |

test system: DR12 motif; experiment: Electrophoretic mobility shift assay of recombinant dUSP on DR12 probe; type: binding; conditions: 500 nm His-tagged receptor
Source text: Nuclear extracts were isolated from Sf9 cells as previously described Jones et al. (2001) Insect Biochem. Mol. Biol. 32, 33-49; Jones et al (1998) Biochem. J. 335, 79-84; 79-84; Jones et al. (2000) Biochem. J. 346, 233-240. For the DR12 probe, the double stranded DR12 oligonucleotide (sequence as shown above) was 5′ end-labelled with ^32P by T4 polynucleotide kinase (New England Biolabs Inc.), and then purified from a 20% native polyacrylamide gel. The same double stranded DR12 oligonucleotide was used in 100-fold excess as a self competitor. For the 4DR12Core probe, the 4DR12Core sequence was liberated from the vector as a 148-bp ClaI/HindIII fragment, and was 5′ end-labelled with ^32P and purified. The same, unlabelled fragment was used at 100-fold excess as a self competitor. As a negative control for specificity in gel shifts, the 36 bp BglII/KpnI polylinker region fragment of the pGL3 vector was liberated and recovered from low melting point agarose gels and used as a 100 nonself competitor (sequence: […], SEQ ID NO: 17). […]
In addition, both receptor preparations bound to the probe similarly in part as monomer and in part as homodimer. […] Thus, any difference detected in ligand binding of the two receptors is most reasonably inferred as arising from differences in the architecture inside the cavity of the ligand-binding pocket due to the C472A/H475L point mutations.

| Molecule | binding to DR12 motif in gel shift |
| --- | --- |
| B5 | similarly bound to a DR12 motif |
| B9 | similarly bound to a DR12 motif |
